Measured values taken from PMC7582152 (2020).

B1: wild-type canine cardiac calsequestrin (Casq2) [canine] / ER luminal domain of IRE1α (IRE1-NLD) [modified: covalently labeled with a red fluorescent tag (Monolith NT Protein Labeling Kit RED-NHS); covalently labeled with a red fluorescent … (parent complex)
chain 1: EEGLNFPTYDGKDRVVSLTEKNFKQVLKKYDVLCLYYHESVSSDKVAQKQFQLKEIVLELVAQVLEHKDIGFVMVDAKKEAKLAKKLGFDEEGSLYVLKGDRTIEFDGEFAADVLVEFLLDLIEDPVEIINSKLEVQAFERIEDQIKLIGFFKSEESEYYKAFEEAAEHFQPYIKFFATFDKGVAKKLSLKMNEVDFYEPFMDEPIAIPDKPYTEEELVEFVKEHQRPTLRRLRPEDMFETWEDDLNGIHIVAFAERSDPDGYEFLEILKQVARDNTDNPDLSIVWIDPDDFPLLVAYWEKTFKIDLFKPQIGVVNVTDADSVWMEIPDDDDLPTAEELEDWIEDVLSGKINTEDDDNEEGDDGDDDEDDDDDDGNNSDEESNDDSDDDDE
chain 2: IFGSTSTVTLPETLLFVSTLDGSLHAVSKRTGSIKWTLKEDPVLQVPTHVEEPAFLPDPNDGSLYTLGSKNNEGLTKLPFTIPELVQASPCRSSDGILYMGKKQDIWYVIDLLTGEKQQTLSSAFADSLCPSTSLLYLGRTEYTITMYDTKTRELRWNATYFDYAASLPEDDVDYKMSHFVSNGDGLVVTVDSESGDVLWIQNYASPVVAFYVWQREGLRKVMHINVAVETLRYLTFMSGEVGRITKWKYPFPKETEAKSKLTPTLYVGKYSTSLYASPSMVHEGVAVVPRGSTLPLLEGPQTDGVTIGDKGECVITPSTDVKFDPGLKSKNKLNYLRNYWLLIGHHETPLSASTKMLERFPNNLPKHRENVIPADSEKKSFEEVINLVDQTSENAPTTVSRDVEEKPAHAPARPEAPVDSMLKD

Variants of: B1
Test: microscale thermophoresis (MST); IRE1-NLD covalently labeled with a red fluorescent tag; increasing amounts of Casq2 or Casq2 mutant; three independent measurements; parent: 4.3e+03 nM; read off a plot

In order of falling Kd:
1. chain 1 EEGLNFPTYDGKDQVVSLTEKNFKQVLKKYDVLCLYYHESVSSDKVAQKQFQLKEIVLELVAQVLEHKDIGFVMVDAKKEAKLAKKLGFDEEGSLYVLKGDRTIEFDGEFAADVLVEFLLDLIEDPVEIINSKLEVQAFERIEDQIKLIGFFKSEESEYYKAFEEAAEHFQPYIKFFATFDKGVAKKLSLKMNEVDFYEPFMDEPIAIPDKPYTEEELVEFVKEHQRPTLRRLRPEDMFETWEDDLNGIHIVAFAERSDPDGYEFLEILKQVARDNTDNPDLSIVWIDPDDFPLLVAYWEKTFKIDLFKPQIGVVNVTDADSVWMEIPDDDDLPTAEELEDWIEDVLSGKINTEDDDNEEGDDGDDDEDDDDDDGNNSDEESNDDSDDDDE [chain 1 R14Q]  ~5.9 µM
2. chain 1 EEGLNFPTYDGKDRVVSLTEKNFKQVLKKYDVLCLYYHESVSSDKVAQKQFQLKEIVLELVAQVLEHKDIGFVMVDAKKEAKLAKKLGFDEEGSLYVLKGDRTIEFDGEFAADVLVEFLLDLIEDPVEIINSKLEVQAFERIEDQIKLIGFFKSEESEYYKAFEEAAEHFQPYIKFFATFDKGVAKKLSLKMNEVDFYEPFMDEPIAIPDKPYTEEELVEFVKEHQRPTLRRLRPEDMFETWEDDLNGIHIVAFAERSDPDGYEFLEILKQVARDNTDNPDLSIVWIDPDDFPLLVAYWEKTFKIDLFKPQIGVVNVTDADSVWMEIPDDDGLPTAEELEDWIEDVLSGKINTEDDDNEEGDDGDDDEDDDDDDGNNSDEESNDDSDDDDE [chain 1 D332G]  ~4.8 µM
3. chain 1 EEGLNFPTYDGKDRVVSLTEKNFKQVLKKYDVLCLYYHESVSSDKVAQKQFQLKEIVLELVAQVLEHKDIGFVMVDAKKEAKLAKKLGFDEEGSLYVLKGDRTIEFDGEFAADVLVEFLLDLIEDPVEIINSKLEVQAFERIEDQIKLIGFFKSEESEYYKAFEEAAEHFQPYIKFFATFDKGVAKKLSLKMNEVDFYEPFMDEPIAIPDKPYTEEELVEFVKEHQRPTLRRLRPEDMFETWEDDLNGIHIVAFAERSDPDGYEFLEILKQVARDNTDNPDLSIVWIDPDDFPLLVAYWEKTFKIDLFKPQIRVVNVTDADSVWMEIPDDDDLPTAEELEDWIEDVLSGKINTEDDDNEEGDDGDDDEDDDDDDGNNSDEESNDDSDDDDE [chain 1 G313R]  ~4.3 µM
4. chain 1 EEGLNFPTYDGKDRVVSLTEKNFKQVLKKYDVLCLYYHESVSSDKVAQKQFQLKEIVLELVAQVLEHKDIGFVMVDAKKEAKLAKKLGFDEEGSLYVLKGDRTIEFDGEFAADVLVEFLLDLIEDPVEIINSKLEVQAFERIEDQIKLIGFFKSEESEYYKAFEEAAEHFQPYIKFFATFDKGVAKKLSLKMNEVDFYEPFMDEPIAIPDKPYTEEELVEFVKEHQRPTLRRLRPEDMFETWEDDLNGIHIVAFAERSDPDGYEFLEILKQVARDNTDNPDLSIVWIHPDDFPLLVAYWEKTFKIDLFKPQIGVVNVTDADSVWMEIPDDDDLPTAEELEDWIEDVLSGKINTEDDDNEEGDDGDDDEDDDDDDGNNSDEESNDDSDDDDE [chain 1 D288H]  ~3.3 µM
5. chain 1 EEGLNFPTYDGKDRVVSLTEKNFKQVLKKYDVLCLYYHESVSSDKVAQKQFQLKEIVLELVAQVLEHKDIGFVMVDAKKEAKLAKKLGFDEEGSLYVLKGDRTIEFDGEFAADVLVEFLLDLIEDPVEIINSKLEVQAFERIEDQIKLIGFFKSEESEYYKAFEEAAEHFQPYIKFFATFDKGVAKKLSLKMNEVDFYEPFMDEPIAIPDKPYTEEELVEFVKEHQRPTLRRLRPEDMFETWEDDLNGIHIVAFAERSDPDGYEFLEILKQVARDNTDNPDLSIVWIDPDDFPLLVAYWEKTFKIDLFKSQIGVVNVTDADSVWMEIPDDDDLPTAEELEDWIEDVLSGKINTEDDDNEEGDDGDDDEDDDDDDGNNSDEESNDDSDDDDE [chain 1 P310S]  ~3.2 µM
6. chain 1 EEGLNFPTYDGKDRVVSLTEKNFKQVLKKYDVLCLYYHESVSSDKVAQKQFQLKEIVLELVAQVLEHKDIGFVMVDAKKEAKLAKKLGFDEEGSLYVLKGDRTIEFDGEFAADVLVEFLLDLIEDPVEIINSKLEVQAFERIEDQIKHIGFFKSEESEYYKAFEEAAEHFQPYIKFFATFDKGVAKKLSLKMNEVDFYEPFMDEPIAIPDKPYTEEELVEFVKEHQRPTLRRLRPEDMFETWEDDLNGIHIVAFAERSDPDGYEFLEILKQVARDNTDNPDLSIVWIDPDDFPLLVAYWEKTFKIDLFKPQIGVVNVTDADSVWMEIPDDDDLPTAEELEDWIEDVLSGKINTEDDDNEEGDDGDDDEDDDDDDGNNSDEESNDDSDDDDE [chain 1 L148H]  ~2.8 µM
7. chain 1 EEGLNFPTYDGKDRVVSLTEKNFKQVLKKYDVLCLYYHESVSSDKVAQKQFQLKEIVLELVAQVLEHKDIGFVMVDAKKEAKLAKKLGFDEEGSLYVLKGDRTIEFDGEFAADVLVEFLLDLIEDPVEIINSKLEVQAFERIEDQIKLIGFFKSEESEYYRAFEEAAEHFQPYIKFFATFDKGVAKKLSLKMNEVDFYEPFMDEPIAIPDKPYTEEELVEFVKEHQRPTLRRLRPEDMFETWEDDLNGIHIVAFAERSDPDGYEFLEILKQVARDNTDNPDLSIVWIDPDDFPLLVAYWEKTFKIDLFKPQIGVVNVTDADSVWMEIPDDDDLPTAEELEDWIEDVLSGKINTEDDDNEEGDDGDDDEDDDDDDGNNSDEESNDDSDDDDE [chain 1 K161R]  ~1.4 µM
